Laboratory results reported in publication PMC8063739.

target: 11th type II cohesin module of the primary scaffoldin ScaA1 of B. cellulosolvens (BcCohScaA1_(11)) (Bacteroides (Pseudobacteroides) cellulosolvens) (UniProt Q9FDJ9); assay: ITC; 308 K; Doc constructs in the cell titrated with 28 injections of 10 μl BcCohScaA1_(11); single-site model
Chain of UniProt Q9FDJ9 (Q9FDJ9 entry or part of it): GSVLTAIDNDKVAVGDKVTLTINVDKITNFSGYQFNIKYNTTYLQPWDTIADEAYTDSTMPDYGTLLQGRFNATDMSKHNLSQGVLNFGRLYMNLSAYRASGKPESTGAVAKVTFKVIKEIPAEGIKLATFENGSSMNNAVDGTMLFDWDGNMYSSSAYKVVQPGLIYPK

Q: “TrxA-BcDocCel48 mutant Q25A/Q58A (domain or fragment)” was tested. Which Ka did it give?
A: 1.35e+06 M⁻¹

Q: What about the dH of the same substance?
A: -8.86 kcal/mol

Q: What about the stoichiometry N of the same substance?
A: 0.99

Q: With “TrxA-BcDocCel48 mutant M21A/I54A (domain or fragment)” as the substance, how does the Ka read?
A: 1.2e+06 M⁻¹

Q: What about the dH of the same substance?
A: -9.3 kcal/mol

Q: And the stoichiometry N?
A: 1

Q: How did the Ka turn out when “Wild-type BcDocCel48 fused to TrxA (TrxA-BcDocCel48) (domain or fragment)” was run?
A: 3.31e+07 M⁻¹

Q: And the dH?
A: -15.2 kcal/mol

Q: And the stoichiometry N?
A: 0.98

Q: With “TrxA-BcDocCel48 mutant M1 (M17S/A18D) (domain or fragment)” as the substance, how does the Ka read?
A: 1.11e+07 M⁻¹

Q: What about the dH of the same substance?
A: -16 kcal/mol

Q: And the stoichiometry N?
A: 0.98

Q: Which Ka does the source give for “TrxA-BcDocCel48 mutant M2 + F27A (domain or fragment)” here?
A: 445000 M⁻¹

Q: What about the dH of the same substance?
A: -13.2 kcal/mol

Q: What about the stoichiometry N of the same substance?
A: 1.01

Q: With “TrxA-BcDocCel48 mutant M2 (M50S/A51D) (domain or fragment)” as the substance, how does the Ka read?
A: 1.41e+06 M⁻¹

Q: And the dH?
A: -17.7 kcal/mol

Q: And the stoichiometry N?
A: 0.99

Q: How did the Ka turn out when “TrxA-BcDocCel48 mutant M1 + F60A (domain or fragment)” was run?
A: 58400 M⁻¹

Q: And the dH?
A: -60.9 kcal/mol

Q: What about the stoichiometry N of the same substance?
A: 1.01

Q: Which Ka does the source give for “TrxA-BcDocCel48 mutant N16A/N49A (domain or fragment)” here?
A: 136000 M⁻¹

Q: And the dH?
A: -14.1 kcal/mol

Q: What about the stoichiometry N of the same substance?
A: 0.99
